Legend:
[1] = molecular target: T1, GST-Z2-P123
T1 chain: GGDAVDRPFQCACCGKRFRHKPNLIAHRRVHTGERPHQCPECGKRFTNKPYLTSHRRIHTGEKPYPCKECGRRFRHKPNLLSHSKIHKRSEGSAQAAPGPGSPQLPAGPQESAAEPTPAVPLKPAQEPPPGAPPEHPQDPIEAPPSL

[2] = molecular target: T2, GST-Z1 (GST fused to the Z1 domain of RIP60, zinc fingers 1-5)
T2 chain: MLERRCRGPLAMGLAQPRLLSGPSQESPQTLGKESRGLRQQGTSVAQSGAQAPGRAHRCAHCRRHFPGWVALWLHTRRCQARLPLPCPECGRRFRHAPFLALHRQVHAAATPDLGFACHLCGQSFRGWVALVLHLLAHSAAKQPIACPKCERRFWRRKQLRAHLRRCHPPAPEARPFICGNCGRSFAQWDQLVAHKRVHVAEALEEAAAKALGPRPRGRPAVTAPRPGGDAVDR

[3] = molecular target: T3, GST-Z3 (GST fused to the Z3 domain of RIP60, zinc fingers 9-15)
T3 chain: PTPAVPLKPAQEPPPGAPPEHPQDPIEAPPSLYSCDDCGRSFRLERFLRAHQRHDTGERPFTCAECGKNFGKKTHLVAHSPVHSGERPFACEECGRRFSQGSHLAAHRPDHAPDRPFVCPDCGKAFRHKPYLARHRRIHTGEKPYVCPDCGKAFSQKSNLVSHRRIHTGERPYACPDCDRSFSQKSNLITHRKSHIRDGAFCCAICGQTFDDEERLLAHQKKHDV

[4] = molecular target: T4, GST-Z2 (GST fused to the Z2 domain of RIP60, zinc fingers 6-8 plus 37 amino acids of the proline rich region)
T4 chain: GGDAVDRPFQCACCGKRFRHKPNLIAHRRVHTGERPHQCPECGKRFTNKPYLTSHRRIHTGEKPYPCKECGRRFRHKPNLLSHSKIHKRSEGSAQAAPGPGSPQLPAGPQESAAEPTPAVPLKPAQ

B1: casein kinase II (CKII; New England Biolabs) (protein)
chain 1: MSGPVPSRARVYTDVNTHRPREYWDYESHVVEWGNQDDYQLVRKLGRGKYSEVFEAINITNNEKVVVKILKPVKKKKIKREIKILENLRGGPNIITLADIVKDPVSRTPALVFEHVNNTDFKQLYQTLTDYDIRFYMYEILKALDYCHSMGIMHRDVKPHNVMIDHEHRKLRLIDWGLAEFYHPGQEYNVRVASRYFKGPELLVDYQMYDYSLDMWSLGCMLASMIFRKEPFFHGHDNYDQLVRIAKVLGTEDLYDYIDKYNIELDPRFNDILGRHSRKRWERFVHSENQHLVSPEALDFLDKLLRYDHQSRLTAREAMEHPYFYTVVKDQARMGSSSMPGGSTPVSSANMMSGISSVPTPSPLGPLAGSPVIAAANPLGMPVPAAAGAQQ
chain 2: not shown
phosphorylation in vitro (32P-ATP, SDS gel, autoradiography) [1]: Both GST-Z2 and GST-Z2P123 were phosphorylated
phosphorylation in vitro (32P-ATP, SDS gel, autoradiography) [2]: neither GST-Z1 nor GST-Z3 were phosphorylated to any great degree
phosphorylation in vitro (32P-ATP, SDS gel, autoradiography) [3]: neither GST-Z1 nor GST-Z3 were phosphorylated to any great degree
phosphorylation in vitro (32P-ATP, SDS gel, autoradiography) [4]: Only the GST-Z2 polypeptide, which contains the casein kinase II phosphorylation domain was phosphorylated
phosphorylation in vitro with and without DNA (32P-ATP, SDS gel, autoradiography) [4]: GST-Z2 polypeptide was phosphorylated by casein kinase II in the absence of DNA. However, the extent of phosphorylation increased in the presence of the double stranded DRS oligo, the linearized plasmid pCH127 and the supercoiled pCH127

Source: patent publication US6780986
